Data from patent US20260060994A1, “GLYCOSYLATED COMPOSITIONS AND METHODS OF USE” (Cy Biopharma AG, priority 2023, published 2026).

Columns and labels:
Assay type in all cases: biochemical
[1] = Glycosylation of 4-HO-MET by GLY enzymes (UDP-glucose), LC-UV/MS; details: 0.5 mM 4-OH-MET, 1.25 mM UDP-glucose, 25% (v/v) GLY enzyme, 24 h at 30° C.; estimate from UV peak areas
Experimental: 4-HO-MET was dissolved in 100% (v/v) DMSO to a concentration of 10 mM. The solution was stored at −20° C. prior to use.
FastAP phosphatase (1 U/uL) from ThermoFisher Scientific (catalog no. EF0651).
GLY enzyme suspensions contain 10 mM Tris-HCl at pH7.4, 250 mM imidazole and 50% (v/v) glycerol.
(§1) The assay conditions were: • 100 mM Tris-HCl, pH 7.4 • 5 mM MgCl2 • 1 mM KCl • 1.25 mM UDP-glucose • 0.5 mM 4-OH-MET • 5% (v/v) DMSO • 0.1 U/uL Fast AP phosphatase • 25% (v/v) GLY enzyme
(§2) Incubation was 24 house at 30° C. Reactions were terminated adding 3 volumes of 75% (v/v) ethanol.
(§3) LC separation was performed using an Agligen 1290 Infinity II UHPLC equipped with a Phenomenex Kinetex XB-C18 column (1.7 um, 100 angstroms, 100×2.1 mm) and 4-HO-MET was detected by absorbance at 210 nm and 268 nm with an Agilent 1260 Infinity II DAD.
(§4) 0.1% Formic acid in water (A) and 0.1% Formic acid in acetonitrile (B) were used as the mobile phases for the elution gradient, with a flow rate of 0.4 ml/min. Retention time for 4-HO-MET using this type of instrument under these condition was 2.6 min. The system was coupled to an Ultivo Triple Quadrupole MS. To verify the presence of possible glycoside products, as SIM (Selected Ion Monitoring) method was used on the MS to analyse for the m/z 381 (theoretical mass to chart ratio of 4-HO-MET-glucoside) and m/z 219 (theoretical mass to charge ratio of 4-HO-MET).
As standard, 4-HO-MET solutions at a concentrations of 500, 250, 125, 62.5, and 31.25 uM were prepared from the 10 mM stock and used for caliboration.
A representative example of the chromatograms obtained with a wavelength of 268 nm for the standard solutions resuspended in the reaction buffer, and the corresponding MS-SIM signal, is shown in FIG. 16. The peak corresponding to 4-HO-MET is indicated.
When analyzing the GLY reactions, 30 of them gave an additional peak with retention time 2.2 min (i.e. in the expected region for a 4-HO-MET glucoside) and molecular mass compatible with the expected glucoside product, together with a corresponding decrease in substrate concentration, compared to the no-enzyme controls.
The method was repeated using various GLY enzymes to produce 4-HO-MET glucosides.
(§5) The enzymes giving the additional peak putatively corresponding to the 4-HO-MET-β-D-glucoside are listed below. […] A correct quantification of the product is not possible without a standard for the specific molecule. However, based on the assumption that the ratio area-to-concentration in the UV chromatograms will be similar to 4-HO-MET, estimates of the relative abundance for the additional peak are also given, expressed as percentage of converted 4-HO-MET. GLY enzymes hits are ranked according to their estimated conversion efficiency.

[2] = Glycosylation of 4-OH-EPT by GLY enzymes (UDP-glucose), LC-UV/MS; details: conditions of Examples 1 and 2 repeated for 4-OH-EPT; estimate from UV peak areas
Experimental: as §1, §2, §3, §4, §5
The experiments described in Examples 1 and 2 above were repeated for 4-OH-EPT.
Below is the corresponding data for 4-OH-EPT.

[3] = Glycosylation of 4-OH-MiPT by GLY enzymes (UDP-glucose), LC-UV/MS; details: conditions of Examples 1 and 2 repeated for 4-OH-MiPT; estimate from UV peak areas
Experimental: as §1, §2, §3, §4, §5
(§6) The experiments described in Examples 1 and 2 above were repeated for 4-OH-MiPT, 4-HO-DMT and 5-HO-DMT
Below is the corresponding data for 4-OH-MiPT.

[4] = Glycosylation of 5-HO-DMT by GLY enzymes (UDP-glucose), LC-UV/MS; details: conditions of Examples 1 and 2 repeated for 5-HO-DMT
Experimental: as §1, §2, §3, §4, §5, §6
(§7) Below is the corresponding data for 4-OH-DMT and 5-HO-DMT.

[5] = Glycosylation of 4-OH-DMT by GLY enzymes (UDP-glucose), LC-UV/MS; details: conditions of Examples 1 and 2 repeated for 4-HO-DMT; estimate from UV peak areas
Experimental: as §1, §2, §3, §4, §5, §6, §7

B1: GLY87: glycosyltransferase (UGT), SEQ ID NO: 10 (protein)
chain: MGKQEDAELVIIPFPFSGHILATIELAKRLISQDNPRIHTITILYWGLPFIPQADTIAFLRSLVKNEPRIRLVTLPEVQDPPPMELFVEFAESYILEYVKKMVPIIREALSTLLSSRDESGSVRVAGLVLDFFCVPMIDVGNEFNLPSYIFLTCSAGFLGMMKYLPERHREIKSEFNRSFNEELNLIPGYVNSVPTKVLPSGLFMKETYEPWVELAERFPEAKGILVNSYTALEPNGFKYFDRCPDNYPTIYPIGPILNLENKKDDAKTDEIMRWLNEQPESSVVFLCFGSMGSFNEKQVKEIAVAIERSGHRFLWSLRRPTPKEKIEFPKEYENLEEVLPEGFLKRTSSIGKVIGWAPQMAVLSHPSVGGFVSHCGWNSTLESMWCGVPMAAWPLYAEQTLNAFLLVVELGLAAEIRMDYRTDTKAGYDGGMEVTVEEIEDGIRKLMSDGEIRNKVKDVKEKSRAAVVEGGSSYASIGKFIEHVSNVTI
- 4-OH-MET GLY % (percentage of converted 4-HO-MET) [1]: 95.2%
- 4-OH-EPT GLY % (percentage of converted 4-OH-EPT) [2]: 68.9%
- 4-OH-MiPT GLY % (percentage of converted 4-OH-MiPT) [3]: 76.4%
- 5-OH-DMT GLY % [4]: 3%
- 4-OH-DMT GLY % [5]: 85.3%
